Measurements as given in patent US20140057284A1, “PHOTOLUMINESCENT MOLECULAR COMPLEX AND METHOD FOR DETERMINING OF THE CONCENTRATION OF SAID MOLECULAR COMPLEX” (priority 2011, published 2014).

Experiments:
[1] = tested on: PHK; experiment: PK selectivity profiling, residual kinase activity; type: biochemical; details: 1 μM ARC-669, ATP close to Km
[2] = biological target: MARK3 (Homo sapiens, UniProt P27448); experiment: biochemical; details: read-out: Percentages of residual activities of the kinase reaction
Description: (§1) Selectivity testing (Table 2) was performed on the commercial basis at the Division of Signal Transduction Therapy, University of Dundee. ATP concentrations that were used in testing were close to the Km value of the kinase.

[3] = biological target: RSK2 (Homo sapiens, UniProt P51812); experiment: biochemical; details: read-out: Percentages of residual activities of the kinase reaction
Description: as §1

[4] = biological target: PKCa (Homo sapiens, UniProt P17252); experiment: biochemical; details: read-out: Percentages of residual activities of the kinase reaction
Description: as §1

[5] = biological target: BTK (Homo sapiens, UniProt Q06187); experiment: biochemical; details: read-out: Percentages of residual activities of the kinase reaction
Description: as §1

[6] = biological target: PAK2 (Homo sapiens, UniProt Q13177); experiment: biochemical; details: read-out: Percentages of residual activities of the kinase reaction
Description: as §1

[7] = biological target: IKKe (Homo sapiens, UniProt Q14164); experiment: biochemical; details: read-out: Percentages of residual activities of the kinase reaction
Description: as §1

[8] = biological target: MKK1 (Homo sapiens, UniProt Q02750); experiment: biochemical; details: read-out: Percentages of residual activities of the kinase reaction
Description: as §1

[9] = biological target: IRR (Homo sapiens, UniProt P14616); experiment: biochemical; details: read-out: Percentages of residual activities of the kinase reaction
Description: as §1

[10] = biological target: p38d MAPK (Homo sapiens, UniProt O15264); experiment: biochemical; details: read-out: Percentages of residual activities of the kinase reaction
Description: as §1

[11] = biological target: TAO1 (Homo sapiens, UniProt Q7L7X3); experiment: biochemical; details: read-out: Percentages of residual activities of the kinase reaction
Description: as §1

[12] = biological target: MELK (Homo sapiens, UniProt Q14680); experiment: biochemical; details: read-out: Percentages of residual activities of the kinase reaction
Description: as §1

[13] = biological target: PKA (Homo sapiens, UniProt P17612); experiment: biochemical; details: read-out: Percentages of residual activities of the kinase reaction
Description: as §1

[14] = biological target: MLK1 (Homo sapiens, UniProt P80192); experiment: biochemical; details: read-out: Percentages of residual activities of the kinase reaction
Description: as §1

[15] = biological target: JAK2 (Homo sapiens, UniProt O60674); experiment: biochemical; details: read-out: Percentages of residual activities of the kinase reaction
Description: as §1

[16] = biological target: GSK3b (Homo sapiens, UniProt P49841); experiment: biochemical; details: read-out: Percentages of residual activities of the kinase reaction
Description: as §1

[17] = biological target: CHK2 (Homo sapiens, UniProt O96017); experiment: biochemical; details: read-out: Percentages of residual activities of the kinase reaction
Description: as §1

[18] = biological target: PKBb (Homo sapiens, UniProt P31751); experiment: biochemical; details: read-out: Percentages of residual activities of the kinase reaction
Description: as §1

[19] = biological target: HIPK2 (Homo sapiens, UniProt Q9H2X6); experiment: biochemical; details: read-out: Percentages of residual activities of the kinase reaction
Description: as §1

[20] = biological target: EPH-B3 (Homo sapiens, UniProt P54753); experiment: biochemical; details: read-out: Percentages of residual activities of the kinase reaction
Description: as §1

[21] = biological target: p38b MAPK (Homo sapiens, UniProt Q15759); experiment: biochemical; details: read-out: Percentages of residual activities of the kinase reaction
Description: as §1

[22] = biological target: EPH-B4 (Homo sapiens, UniProt P54760); experiment: biochemical; details: read-out: Percentages of residual activities of the kinase reaction
Description: as §1

[23] = biological target: MNK1 (Homo sapiens, UniProt Q9BUB5); experiment: biochemical; details: read-out: Percentages of residual activities of the kinase reaction
Description: as §1

[24] = biological target: Aurora A (Homo sapiens, UniProt O14965); experiment: biochemical; details: read-out: Percentages of residual activities of the kinase reaction
Description: as §1

[25] = biological target: LKB1 (Homo sapiens, UniProt Q15831); experiment: biochemical; details: read-out: Percentages of residual activities of the kinase reaction
Description: as §1

[26] = biological target: IRAK4 (Homo sapiens, UniProt Q9NWZ3); experiment: biochemical; details: read-out: Percentages of residual activities of the kinase reaction
Description: as §1

[27] = biological target: MSK1 (Homo sapiens, UniProt O75582); experiment: biochemical; details: read-out: Percentages of residual activities of the kinase reaction
Description: as §1

[28] = biological target: MLK3 (Homo sapiens, UniProt Q16584); experiment: biochemical; details: read-out: Percentages of residual activities of the kinase reaction
Description: as §1

[29] = biological target: p38a MAPK (Homo sapiens, UniProt Q16539); experiment: biochemical; details: read-out: Percentages of residual activities of the kinase reaction
Description: as §1

[30] = biological target: BRK (Homo sapiens, UniProt Q13882); experiment: biochemical; details: read-out: Percentages of residual activities of the kinase reaction
Description: as §1

[31] = biological target: EPH-B2 (Homo sapiens, UniProt P29323); experiment: biochemical; details: read-out: Percentages of residual activities of the kinase reaction
Description: as §1

[32] = biological target: MARK2 (Homo sapiens, UniProt Q7KZI7); experiment: biochemical; details: read-out: Percentages of residual activities of the kinase reaction
Description: as §1

[33] = biological target: CDK2-Cyclin A (Homo sapiens, UniProt P24941); experiment: biochemical; details: read-out: Percentages of residual activities of the kinase reaction
Description: as §1

[34] = biological target: ABL (Homo sapiens, UniProt P00519); experiment: biochemical; details: read-out: Percentages of residual activities of the kinase reaction
Description: as §1

[35] = biological target: PLK1 (Homo sapiens, UniProt P53350); experiment: biochemical; details: read-out: Percentages of residual activities of the kinase reaction
Description: as §1

[36] = biological target: Src (Homo sapiens, UniProt P12931); experiment: biochemical; details: read-out: Percentages of residual activities of the kinase reaction
Description: as §1

[37] = biological target: SYK (Homo sapiens, UniProt P43405); experiment: biochemical; details: read-out: Percentages of residual activities of the kinase reaction
Description: as §1

[38] = biological target: DAPK1 (Homo sapiens, UniProt P53355); experiment: biochemical; details: read-out: Percentages of residual activities of the kinase reaction
Description: as §1

[39] = biological target: MEKK1 (Homo sapiens, UniProt Q13233); experiment: biochemical; details: read-out: Percentages of residual activities of the kinase reaction
Description: as §1

[40] = biological target: EF2K (Homo sapiens, UniProt O00418); experiment: biochemical; details: read-out: Percentages of residual activities of the kinase reaction
Description: as §1

[41] = tested on: CK1; experiment: PK selectivity profiling, residual kinase activity; type: biochemical; details: 1 μM ARC-669, ATP close to Km

BRK, sequence (Q13882 whole entry, species assumed): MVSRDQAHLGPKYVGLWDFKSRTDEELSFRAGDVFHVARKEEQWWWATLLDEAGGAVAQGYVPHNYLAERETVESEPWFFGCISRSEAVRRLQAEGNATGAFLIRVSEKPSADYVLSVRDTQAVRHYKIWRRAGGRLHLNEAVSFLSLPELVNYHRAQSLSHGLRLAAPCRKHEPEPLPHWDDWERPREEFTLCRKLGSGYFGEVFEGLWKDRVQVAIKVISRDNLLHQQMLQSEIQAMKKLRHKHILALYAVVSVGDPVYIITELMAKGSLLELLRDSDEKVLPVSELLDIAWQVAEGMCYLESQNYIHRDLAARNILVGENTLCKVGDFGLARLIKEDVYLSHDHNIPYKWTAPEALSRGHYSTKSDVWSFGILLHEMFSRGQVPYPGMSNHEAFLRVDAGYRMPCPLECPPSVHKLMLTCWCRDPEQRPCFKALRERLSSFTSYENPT
p38a MAPK, sequence (Q16539 whole entry): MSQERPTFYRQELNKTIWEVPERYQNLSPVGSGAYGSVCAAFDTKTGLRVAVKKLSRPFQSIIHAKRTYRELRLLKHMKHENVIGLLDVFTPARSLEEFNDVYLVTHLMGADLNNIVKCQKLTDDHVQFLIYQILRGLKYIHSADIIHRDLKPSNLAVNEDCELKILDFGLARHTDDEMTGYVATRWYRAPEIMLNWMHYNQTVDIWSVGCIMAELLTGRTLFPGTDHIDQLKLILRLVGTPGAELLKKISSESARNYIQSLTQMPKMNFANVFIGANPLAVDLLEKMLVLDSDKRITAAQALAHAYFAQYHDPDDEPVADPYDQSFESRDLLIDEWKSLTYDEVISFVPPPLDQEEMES
TAO1, sequence (Q7L7X3 whole entry): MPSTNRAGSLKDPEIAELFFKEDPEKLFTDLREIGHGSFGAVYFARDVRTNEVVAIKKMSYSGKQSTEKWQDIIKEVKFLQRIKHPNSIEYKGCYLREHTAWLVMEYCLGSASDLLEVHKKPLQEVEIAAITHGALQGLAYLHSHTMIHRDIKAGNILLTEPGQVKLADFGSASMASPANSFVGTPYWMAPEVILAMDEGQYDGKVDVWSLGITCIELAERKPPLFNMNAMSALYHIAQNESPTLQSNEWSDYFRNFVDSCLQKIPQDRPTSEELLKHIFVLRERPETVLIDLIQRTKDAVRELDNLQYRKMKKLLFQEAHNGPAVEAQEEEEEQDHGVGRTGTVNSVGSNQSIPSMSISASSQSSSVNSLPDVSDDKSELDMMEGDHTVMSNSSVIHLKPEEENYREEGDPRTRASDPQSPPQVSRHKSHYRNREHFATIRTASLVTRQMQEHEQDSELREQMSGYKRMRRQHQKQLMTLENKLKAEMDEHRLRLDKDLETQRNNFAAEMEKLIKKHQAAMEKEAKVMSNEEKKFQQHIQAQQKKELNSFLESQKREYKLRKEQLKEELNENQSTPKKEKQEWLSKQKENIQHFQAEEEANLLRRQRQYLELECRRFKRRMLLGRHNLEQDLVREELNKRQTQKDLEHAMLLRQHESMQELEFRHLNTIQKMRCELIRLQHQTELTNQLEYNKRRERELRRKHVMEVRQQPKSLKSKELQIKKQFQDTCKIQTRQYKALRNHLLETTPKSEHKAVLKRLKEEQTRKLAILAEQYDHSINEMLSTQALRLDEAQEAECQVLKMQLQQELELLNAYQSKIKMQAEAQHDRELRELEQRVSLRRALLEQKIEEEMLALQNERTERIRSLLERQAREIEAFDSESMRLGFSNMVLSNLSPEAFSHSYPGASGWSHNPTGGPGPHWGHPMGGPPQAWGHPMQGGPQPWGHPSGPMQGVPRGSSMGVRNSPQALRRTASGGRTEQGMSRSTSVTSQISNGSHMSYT
EPH-B4, sequence (P54760 16-987, species assumed): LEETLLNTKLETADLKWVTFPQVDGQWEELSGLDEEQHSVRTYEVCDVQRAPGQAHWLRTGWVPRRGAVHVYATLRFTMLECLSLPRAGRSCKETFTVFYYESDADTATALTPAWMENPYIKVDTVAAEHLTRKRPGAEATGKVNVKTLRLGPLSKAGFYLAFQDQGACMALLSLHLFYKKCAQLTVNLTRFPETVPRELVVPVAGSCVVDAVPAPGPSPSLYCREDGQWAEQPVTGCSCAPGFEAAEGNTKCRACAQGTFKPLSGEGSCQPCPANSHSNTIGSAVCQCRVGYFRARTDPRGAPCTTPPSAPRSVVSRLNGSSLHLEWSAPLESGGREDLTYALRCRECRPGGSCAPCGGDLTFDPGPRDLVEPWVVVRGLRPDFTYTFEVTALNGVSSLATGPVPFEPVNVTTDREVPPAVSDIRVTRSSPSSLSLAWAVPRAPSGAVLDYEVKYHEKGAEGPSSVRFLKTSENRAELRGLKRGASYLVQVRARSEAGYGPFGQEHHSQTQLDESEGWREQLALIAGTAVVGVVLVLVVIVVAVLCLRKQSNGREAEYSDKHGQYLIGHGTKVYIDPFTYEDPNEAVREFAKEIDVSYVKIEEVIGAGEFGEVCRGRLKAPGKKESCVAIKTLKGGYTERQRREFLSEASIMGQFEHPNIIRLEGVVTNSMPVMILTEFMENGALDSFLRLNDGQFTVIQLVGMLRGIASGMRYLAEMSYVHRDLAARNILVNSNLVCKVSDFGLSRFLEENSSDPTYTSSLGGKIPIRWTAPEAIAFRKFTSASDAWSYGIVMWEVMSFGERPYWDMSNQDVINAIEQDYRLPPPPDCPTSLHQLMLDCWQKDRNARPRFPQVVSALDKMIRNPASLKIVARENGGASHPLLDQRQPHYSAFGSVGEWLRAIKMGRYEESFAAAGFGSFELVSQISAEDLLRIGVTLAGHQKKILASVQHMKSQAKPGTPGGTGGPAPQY
EPH-B2, sequence (P29323 19-1055, species assumed): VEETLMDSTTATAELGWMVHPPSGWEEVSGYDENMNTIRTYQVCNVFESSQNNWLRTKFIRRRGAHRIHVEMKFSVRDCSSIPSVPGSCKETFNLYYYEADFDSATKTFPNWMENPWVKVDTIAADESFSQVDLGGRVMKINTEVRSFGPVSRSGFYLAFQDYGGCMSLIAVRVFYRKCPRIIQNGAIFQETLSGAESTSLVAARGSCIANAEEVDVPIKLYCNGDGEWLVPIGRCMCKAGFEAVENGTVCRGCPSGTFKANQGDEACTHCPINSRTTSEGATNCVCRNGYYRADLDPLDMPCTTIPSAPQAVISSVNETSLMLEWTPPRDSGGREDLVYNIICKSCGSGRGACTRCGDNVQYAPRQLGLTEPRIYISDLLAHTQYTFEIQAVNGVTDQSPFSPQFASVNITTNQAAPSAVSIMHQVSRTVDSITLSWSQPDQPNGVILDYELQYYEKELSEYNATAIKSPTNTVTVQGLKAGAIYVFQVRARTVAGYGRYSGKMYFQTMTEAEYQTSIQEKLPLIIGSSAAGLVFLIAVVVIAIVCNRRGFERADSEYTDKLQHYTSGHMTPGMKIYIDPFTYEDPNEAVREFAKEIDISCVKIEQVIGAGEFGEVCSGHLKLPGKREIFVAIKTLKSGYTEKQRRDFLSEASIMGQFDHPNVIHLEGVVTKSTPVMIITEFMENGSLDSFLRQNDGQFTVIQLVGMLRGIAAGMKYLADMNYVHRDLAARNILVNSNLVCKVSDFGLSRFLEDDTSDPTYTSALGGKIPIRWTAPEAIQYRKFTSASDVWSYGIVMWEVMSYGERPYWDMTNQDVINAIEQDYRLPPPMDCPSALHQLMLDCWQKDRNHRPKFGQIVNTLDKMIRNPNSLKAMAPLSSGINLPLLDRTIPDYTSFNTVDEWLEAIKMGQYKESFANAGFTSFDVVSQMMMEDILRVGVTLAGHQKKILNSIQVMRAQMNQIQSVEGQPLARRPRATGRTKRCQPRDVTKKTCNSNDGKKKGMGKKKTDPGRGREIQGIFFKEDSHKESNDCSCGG
MNK1, sequence (Q9BUB5 whole entry, species assumed): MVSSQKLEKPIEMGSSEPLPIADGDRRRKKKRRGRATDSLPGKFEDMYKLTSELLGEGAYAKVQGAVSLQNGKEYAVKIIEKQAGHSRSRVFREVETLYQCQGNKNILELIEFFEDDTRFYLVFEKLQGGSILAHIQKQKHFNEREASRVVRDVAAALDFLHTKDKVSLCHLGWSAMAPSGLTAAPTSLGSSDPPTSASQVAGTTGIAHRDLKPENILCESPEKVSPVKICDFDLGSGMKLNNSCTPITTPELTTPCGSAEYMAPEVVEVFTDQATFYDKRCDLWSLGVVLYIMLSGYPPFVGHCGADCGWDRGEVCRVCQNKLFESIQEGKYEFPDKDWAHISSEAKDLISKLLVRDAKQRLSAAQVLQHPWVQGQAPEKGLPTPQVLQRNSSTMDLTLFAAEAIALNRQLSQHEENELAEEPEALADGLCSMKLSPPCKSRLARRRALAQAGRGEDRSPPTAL
IRAK4, sequence (Q9NWZ3 whole entry, species assumed): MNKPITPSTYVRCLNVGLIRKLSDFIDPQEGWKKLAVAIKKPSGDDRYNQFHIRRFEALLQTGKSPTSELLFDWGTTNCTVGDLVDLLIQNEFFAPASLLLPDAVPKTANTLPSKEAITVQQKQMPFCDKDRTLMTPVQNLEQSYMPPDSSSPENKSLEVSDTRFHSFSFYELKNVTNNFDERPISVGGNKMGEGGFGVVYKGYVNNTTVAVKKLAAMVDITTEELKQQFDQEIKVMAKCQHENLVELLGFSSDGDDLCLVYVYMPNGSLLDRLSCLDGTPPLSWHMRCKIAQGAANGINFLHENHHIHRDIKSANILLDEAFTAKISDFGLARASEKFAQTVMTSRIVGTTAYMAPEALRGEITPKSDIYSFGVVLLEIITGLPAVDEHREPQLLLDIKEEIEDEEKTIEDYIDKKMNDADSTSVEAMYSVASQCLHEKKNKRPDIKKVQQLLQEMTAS

CN(C)c1ccc2c(c1)Oc1cc(N(C)C)ccc1C21OC(=O)c2cc(C(=O)NCCCC[C@@H](NC(=O)[C@@H](CCCNC(=N)N)NC(=O)[C@@H](CCCNC(=N)N)NC(=O)[C@@H](CCCNC(=N)N)NC(=O)[C@@H](CCCNC(=N)N)NC(=O)[C@@H](CCCNC(=N)N)NC(=O)[C@@H](CCCNC(=N)N)NC(=O)CCCCCNC(=O)[C@@H](CCCNC(=N)N)NC(=O)CCCCCNC(=O)c3ccc(-c4ccnc(N)n4)s3)C(N)=O)ccc21 [ARC-669]
Percentages of residual activities of the kinase reaction [1]: 32% | remaining activity at 1 µM [2]: 20% | remaining activity at 1 µM [3]: 4% | remaining activity at 1 µM [4]: 15% | remaining activity at 1 µM [5]: 36% | remaining activity at 1 µM [6]: 43% | remaining activity at 1 µM [7]: 37% | remaining activity at 1 µM [8]: 69% | remaining activity at 1 µM [9]: 32% | remaining activity at 1 µM [10]: 104% | remaining activity at 1 µM [11]: 94% | remaining activity at 1 µM [12]: 31% | remaining activity at 1 µM [13]: 1% | remaining activity at 1 µM [14]: 60% | remaining activity at 1 µM [15]: 80% | remaining activity at 1 µM [16]: 77% | remaining activity at 1 µM [17]: 28% | remaining activity at 1 µM [18]: 4% | remaining activity at 1 µM [19]: 63% | remaining activity at 1 µM [20]: 75% | remaining activity at 1 µM [21]: 71% | remaining activity at 1 µM [22]: 98% | remaining activity at 1 µM [23]: 74% | remaining activity at 1 µM [24]: 86% | remaining activity at 1 µM [25]: 101% | remaining activity at 1 µM [26]: 82% | remaining activity at 1 µM [27]: 3% | remaining activity at 1 µM [28]: 70% | remaining activity at 1 µM [29]: 55% | remaining activity at 1 µM [30]: 100% | remaining activity at 1 µM [31]: 96% | remaining activity at 1 µM [32]: 77% | remaining activity at 1 µM [33]: 78% | remaining activity at 1 µM [34]: 88% | remaining activity at 1 µM [35]: 101% | remaining activity at 1 µM [36]: 106% | remaining activity at 1 µM [37]: 73% | remaining activity at 1 µM [38]: 20% | remaining activity at 1 µM [39]: 19% | remaining activity at 1 µM [40]: 43% | Percentages of residual activities of the kinase reaction [41]: 72%
